The values below come from publication PMC11960969, “Mdga2 deficiency leads to an aberrant activation of BDNF/TrkB signaling that underlies autism-relevant synaptic and behavioral changes in mice” (PLOS Biology, 2025).

By Kd is commonly meant the constant that tells how readily two partners part at equilibrium.

One test concerns the target T1, recombinant TrkB protein (Homo sapiens, UniProt Q16620).
T1 construct: Full-length human TrkB or MDGA2 cDNA was cloned into the pcDNA6-His vector; His; made in house; host or cells: HEK293T cells
In words: Surface plasmon resonance (Biacore CM5, immobilized TrkB). The class given is binding. As to conditions: SPR, TrkB immobilized on Biacore CM5 chip, analyte at several concentrations, Biacore T100 Evaluation software. Here is the method: (§1) Fig 3 MDGA2 interacts with TrkB and suppresses TrkB activity. (A) Primary hippocampal neurons derived from Mdga2^ +/− (Het) mice and their wild-type (WT) littermates at DIV 7 were treated with different doses of BDNF for 30 min. Equal amounts of protein lysates were subjected to immunoprecipitation (IP) with an anti-TrkB antibody, followed by immunoblotting with an anti-phosphotyrosine (pTyr) antibody or the anti-TrkB antibody. The pTyr levels were quantified by densitometry, normalized to total TrkB levels, and then compared to those of WT controls. n = 3 per group. (B) WT mouse brain lysates were subjected to IP with an anti-MDGA2 antibody and a control IgG, and immunoblotted (IB) for the components indicated. mBDNF, mature BDNF; ImBDNF, immature BDNF. […] Immunoprecipitated TrkB levels were quantified by densitometry, normalized to input levels, and compared to respective controls (set to one arbitrary units). n = 3 per group. […] Levels of phosphorylated proteins were quantified by densitometry, normalized to respective total protein levels and compared to controls (set to one arbitrary units). n = 6 per group. […] P-values were determined by two-tailed unpaired Student t-test in (A) and one-way ANOVA with Tukey’s multiple comparisons test in (H, I, J). *p < 0.05, **p < 0.01, ***p < 0.001, ns: not significant. […]
On the technique in general: In SPR one partner is held on a chip, and binding of the other changes the refractive index at the surface.

For another test, the system named is TrkB (TrkB-VN). In words: BiFC assay in HeLa cells (TrkB-VN with MDGA2-VC or ΔMAM-VC). Type of test: cell-based, human. As to conditions: 24 h, Venus fluorescence. As to the method:
as §1

In test [1] the test system is TrkB signaling (pTrkB, pAkt, pmTOR). In words: Immunoblotting of TrkB/Akt/mTOR phosphorylation in primary neurons transfected with MDGA2, ΔMAM or V930I. The class given is cell-based, mouse. To be noted: for pAkt level normalized to total protein / pTrkB level normalized to total protein / pmTOR level normalized to total protein: KO neurons transfected, WT/Ctrl set to one. Here is the method:
Fig 3 MDGA2 interacts with TrkB and suppresses TrkB activity. (A) Primary hippocampal neurons derived from Mdga2^ +/− (Het) mice and their wild-type (WT) littermates at DIV 7 were treated with different doses of BDNF for 30 min. Equal amounts of protein lysates were subjected to immunoprecipitation (IP) with an anti-TrkB antibody, followed by immunoblotting with an anti-phosphotyrosine (pTyr) antibody or the anti-TrkB antibody. The pTyr levels were quantified by densitometry, normalized to total TrkB levels, and then compared to those of WT controls. n = 3 per group. (B) WT mouse brain lysates were subjected to IP with an anti-MDGA2 antibody and a control IgG, and immunoblotted (IB) for the components indicated. mBDNF, mature BDNF; ImBDNF, immature BDNF. (C) Hippocampal neurons from WT mice at DIV 7 were immunostained with antibodies against MDGA2 (red) and TrkB (green), and then counter-stained with DAPI (blue). Images were acquired by a confocal microscope. Scale bar: 10 μm. (D) Surface plasmon resonance (SPR) analysis of the binding between recombinant MDGA2 protein and recombinant TrkB protein. TrkB was immobilized on a Biacore CM5 chip and tested for its binding with MDGA2 at the concentrations indicated. (E) Computer simulation of the binding mode of TrkB and MDGA2. The predicted binding domain of TrkB (the d5 domain) is highlighted by a red square and labeled in brown. The predicted binding domain of MDGA2 (the MAM domain) is highlighted by a red square and labeled in yellow. (F) HEK293T cells were co-transfected with TrkB-Flag and GFP-tagged full-length MDGA2 (MDGA2-GFP) or an MDGA2 deletion fragment lacking the entire MAM domain (ΔMAM-GFP). Cell lysates were subjected to IP with control IgG and antibodies against Flag or GFP, and immunoblotted for the components indicated. […] The scheme of MDGA2-ΔMAM is also shown. (G) HeLa cells were co-transfected with TrkB that is tagged with the N-terminal Venus fragment (TrkB-VN) and full-length MDGA2 or MDGA2-ΔMAM that are tagged with the C-terminal Venus fragment (MDGA2-VC or ΔMAM-VC) for 24 h. After immunostaining with antibodies against MDGA2/MDGA2-ΔMAM (pink) and TrkB (red), cells were observed by confocal microscopy. Venus signal (green) indicates the interaction between MDGA2 and TrkB. Schematic diagrams depicting the BiFC assay are also shown. Scale bars: 10 μm. (H, I) Equal amounts of protein lysates from primary neurons derived from Het, KO, and their WT littermate mice (H), and from WT primary neurons transfected with GFP control, MDGA2-GFP or ΔMAM-GFP (I) were subjected to IP with IgG and an anti-BDNF antibody, and then immunoblotted for the components indicated. Immunoprecipitated TrkB levels were quantified by densitometry, normalized to input levels, and compared to respective controls (set to one arbitrary units). n = 3 per group. (J) Neurons derived from KO mice were transfected with GFP control (Ctrl), MDGA2-GFP, or MDGA2-ΔMAM-GFP, and neurons derived from their WT littermates were transfected with GFP control (Ctrl). Equal amounts of protein lysates were subjected to immunoblotting for the proteins indicated. Levels of phosphorylated proteins were quantified by densitometry, normalized to respective total protein levels and compared to controls (set to one arbitrary units). n = 6 per group. Data represent mean ± SEM. P-values were determined by two-tailed unpaired Student t-test in (A) and one-way ANOVA with Tukey’s multiple comparisons test in (H, I, J). *p < 0.05, **p < 0.01, ***p < 0.001, ns: not significant. The data underlying this figure can be found in S1 Data, specifically in the sheet labeled “Figure 3”.
Fig 7 The autism spectrum disorder (ASD)-associated MDGA2 V930I mutation impairs the MDGA2-TrkB interaction and MDGA2’s inhibitory effect on the tyrosine kinase B (TrkB) signaling. (A) Schematic depiction of the WT human MDGA2 and its V930I mutation constructs that are tagged with GFP. […]

The next test relates to TrkB. In words: Co-IP of endogenous MDGA2 and TrkB from WT mouse brain lysates. The class given is binding.
The next test concerns BDNF-TrkB interaction. In words: BDNF-TrkB Co-IP (anti-BDNF or anti-TrkB) in primary neurons / brain of Het, KO, WT and in WT neurons transfected with MDGA2 or ΔMAM. Type of test: cell-based, mouse. As to conditions: IP anti-BDNF, Fig 3I. Here is the method: as §1

T1 sequence (Q16620 32-822): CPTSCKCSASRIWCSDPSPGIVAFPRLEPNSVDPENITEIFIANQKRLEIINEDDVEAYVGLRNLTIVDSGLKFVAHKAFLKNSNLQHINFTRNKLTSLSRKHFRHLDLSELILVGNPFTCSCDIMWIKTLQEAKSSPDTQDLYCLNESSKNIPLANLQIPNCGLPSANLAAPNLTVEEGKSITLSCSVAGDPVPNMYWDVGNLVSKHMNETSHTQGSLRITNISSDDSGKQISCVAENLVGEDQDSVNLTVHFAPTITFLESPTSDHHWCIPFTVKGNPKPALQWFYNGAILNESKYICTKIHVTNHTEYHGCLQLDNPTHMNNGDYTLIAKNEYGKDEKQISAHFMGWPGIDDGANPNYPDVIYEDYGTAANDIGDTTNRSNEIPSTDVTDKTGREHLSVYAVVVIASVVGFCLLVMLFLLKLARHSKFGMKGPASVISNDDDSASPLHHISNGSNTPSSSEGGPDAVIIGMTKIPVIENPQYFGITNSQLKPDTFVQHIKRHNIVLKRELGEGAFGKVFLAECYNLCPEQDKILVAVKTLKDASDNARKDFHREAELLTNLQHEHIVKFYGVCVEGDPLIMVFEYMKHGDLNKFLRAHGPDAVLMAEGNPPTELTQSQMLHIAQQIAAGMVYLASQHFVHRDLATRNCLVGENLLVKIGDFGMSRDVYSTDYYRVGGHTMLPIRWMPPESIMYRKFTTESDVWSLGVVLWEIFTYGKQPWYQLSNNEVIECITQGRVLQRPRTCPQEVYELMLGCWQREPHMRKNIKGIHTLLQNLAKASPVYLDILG

B1: MDGA2: MAM domain containing glycosylphosphatidylinositol anchor 2; full-length human, recombinant or transfected (protein, UniProt Q7Z553 1-956, looked up)
chain: MDLLYGLVWLLTVLLEGISGQGVYAPPTVRIVHSGLACNIEEERYSERVYTIREGETLELTCLVTGHPRPQIRWTKTAGSASDRFQDSSVFNETLRITNIQRHQGGRYYCKAENGLGSPAIKSIRVDVYYLDDPVVTVHQSIGEAKEQFYYERTVFLRCVANSNPPVRYSWRRGQEVLLQGSDKGVEIYEPFFTQGETKILKLKNLRPQDYANYSCIASVRNVCNIPDKMVSFRLSNKTASPSIKLLVDDPIVVNPGEAITLVCVTTGGEPAPSLTWVRSFGTLPEKTVLNGGTLTIPAITSDDAGTYSCIANNNVGNPAKKSTNIIVRALKKGRFWITPDPYHKDDNIQIGREVKISCQVEAVPSEELTFSWFKNGRPLRSSERMVITQTDPDVSPGTTNLDIIDLKFTDFGTYTCVASLKGGGISDISIDVNISSSTVPPNLTVPQEKSPLVTREGDTIELQCQVTGKPKPIILWSRADKEVAMPDGSMQMESYDGTLRIVNVSREMSGMYRCQTSQYNGFNVKPREALVQLIVQYPPAVEPAFLEIRQGQDRSVTMSCRVLRAYPIRVLTYEWRLGNKLLRTGQFDSQEYTEYAVKSLSNENYGVYNCSIINEAGAGRCSFLVTGKAYAPEFYYDTYNPVWQNRHRVYSYSLQWTQMNPDAVDRIVAYRLGIRQAGQQRWWEQEIKINGNIQKGELITYNLTELIKPEAYEVRLTPLTKFGEGDSTIRVIKYSAPVNPHLREFHCGFEDGNICLFTQDDTDNFDWTKQSTATRNTKYTPNTGPNADRSGSKEGFYMYIETSRPRLEGEKARLLSPVFSIAPKNPYGPTNTAYCFSFFYHMYGQHIGVLNVYLRLKGQTTIENPLWSSSGNKGQRWNEAHVNIYPITSFQLIFEGIRGPGIEGDIAIDDVSIAEGECAKQDLATKNSVDGAVGILVHIWLFPIIVLISILSPRR
modifications: full-length GFP tag in some constructs
notes: MAM domain containing glycosylphosphatidylinositol anchor 2; full-length human, recombinant or transfected
In the case of B1, the Kd with recombinant TrkB protein amounted to 24.4 nM. The “interaction with TrkB (BiFC)” value in the test with TrkB (TrkB-VN) is given as “could interact with full-length MDGA2”. The “pAkt level normalized to total protein” value came to 1.48 arbitrary units in test [1] (replicate 1); 1.42 arbitrary units in test [1] (replicate 2); 1.72 arbitrary units in test [1] (replicate 3); 1.9 arbitrary units in test [1] (replicate 4); 1.87 arbitrary units in test [1] (replicate 5); 1.07 arbitrary units in test [1] (replicate 6). In addition, the “pTrkB level normalized to total protein” value was determined as 1.52 arbitrary units in test [1] (replicate 1); 1.19 arbitrary units in test [1] (replicate 2); 1.31 arbitrary units in test [1] (replicate 3); 1.16 arbitrary units in test [1] (replicate 4); 1.08 arbitrary units in test [1] (replicate 5); 1.03 arbitrary units in test [1] (replicate 6). Moreover, the “pmTOR level normalized to total protein” value was found to be 0.88 arbitrary units in test [1] (replicate 1); 1.02 arbitrary units in test [1] (replicate 2); 1.26 arbitrary units in test [1] (replicate 3); 1.35 arbitrary units in test [1] (replicate 4); 1.92 arbitrary units in test [1] (replicate 5); 1.41 arbitrary units in test [1] (replicate 6). Also, the “overactivation of TrkB signaling (pTrkB, pAkt, pmTOR) upon expression” value in test [1] (Mdga2-/- neurons, Fig 3J, n = 6) was “could be reversed upon the expression of full-length MDGA2”. In addition, the “interaction of endogenous MDGA2 (Co-IP)” value was “immunoprecipitated TrkB and NLGN1 but not mBDNF or ImBDNF” in the test with TrkB (IP anti-MDGA2, Fig 3B); “specifically immunoprecipitated MDGA2 but not MDGA1” in the test with TrkB (IP anti-TrkB, S3C Fig). For the same molecule, in the test on BDNF-TrkB interaction, the “interaction between BDNF and TrkB upon overexpression” value was “attenuated the interaction between BDNF and TrkB”.
